Consider two molecules from publication PMC8249405 (2021).

A word on the koff: it is the first-order rate constant of dissociation. The low end stands for slow dissociation, the high end for fast dissociation.

B1: Arabidopsis thaliana Formin 1 AtFH1-FH1C (domain or fragment)
chain: RQGLQSQLLSSPSNSHGGQGFLKQLDALRSRSPSSSSSSVCSSPEKASHKSPVTSPKLSSRNSQSLSSSPDRDFSHSLDVSPRISNISPQILQSRVPPPPPPPPPLPLWGRRSQVTTKADTISRPPSLTPPSHPFVIPSENLPVTSSPMETPETVCASEAAEETPKPKLKALHWDKVRASSDREMVWDHLRSSSFKLDEEMIETLFVAKSLNNKPNQSQTTPRCVLPSPNQENRVLDPKKAQNIAILLRALNVTIEEVCEALLEGNADTLGTELLESLLKMAPTKEEERKLKAYNDDSPVKLGHAEKFLKAMLDIPFAFKRVDAMLYVANFESEVEYLKKSFETLEAACEELRNSRMFLKLLEAVLKTGNRMNVGTNRGDAHAFKLDTLLKLVDVKGADGKTTLLHFVVQEIIRAEGTRLSGNNTQTDDIKCRKLGLQVVSSLCSELSNVKKAAAMDSEVLSSYVSKLSQGIAKINEAIQVQSTITEESNSQRFSESMKTFLKRAEEEIIRVQAQESVALSLVKEITEYFHGNSAKEEAHPFRIFLVVRDFLGVVDRVCKEVGMINERTMVSSAHKFPVPVNPMMPQPLPGLVGRRQSSSSSSSSSTSSSDEDEHNSISLVS
B2: Xcc XopR-FL (aa 1-411) (natural protein)
chain: MRLSQLFNSRHRVAPEPHGANPNKTTPLIPGASPQHPLSQAPKSTTSQGASKSHRGMLASARKSLASLRKQLPLTCMGSSPTLETVESPPAHTAAVTPGRTQQQHGTQARVDQRWQPPVPNATDHERVQRPQPQPQQTPPTRQSMSVPPKPARAQQLHGPQRPVDPRMQPPIPERMRRDEGQPPQHDKPASPPVPITPAQSSLPSPRPQPGRQPSLRRLDLQLEEITRQCSDIQKQLFMEDREATPQEQHLLKTRAALIAWRNEVRDSQLEALLVALAPMEDIRAPRTTSSGLAMVQMDAMQHNRREVLKARRKSVDRAALARNYARAQRRLESLKQGDAPKEQIRRLQRMMQGYQNMLALEQIVRSTDDQLERLGAPRLMSGIPTTAEQRRQSFEKERDAHQEAIDNGYY

The target of series [1] is B2. In words: SPR; bivalent model, koff1. On the technique in general: SPR reads the build-up and loss of mass on a sensor chip optically.
Series [2] deals with the molecule itself. Briefly: SPR; bivalent model, koff1.

In series [1], B1 registered a dissociation rate constant (koff) of 0.0152 s⁻¹.
For B2, in series [2], the koff was determined as 0.27 s⁻¹.
